Key:
[1] = target: H77c E2 with substitutions at Val536 (row 10), Phe537 (row 11) and Asn540 (row 12); assay: ELISA on GNA-captured mutant E2 from 293T lysates
[2] = target: HCV envelope glycoprotein E2, genotype 1a (hepatitis C virus genotype 1a) (UniProt P27958); assay: cell-based or functional assay
[3] = target: HCV envelope glycoprotein E2, genotype 1b (hepatitis C virus genotype 1b); assay: CD81 capture ELISA; 1b E1E2 lysate preincubated with antibody (15 µg/ml), added to CD81-coated wells, detected with biotinylated CBH-4D
[4] = target: H77c E2 mutant, Ala531 substituted (hepatitis C virus genotype 1a, strain H77c) (UniProt P27958); assay: ELISA on GNA-captured mutant E2 from 293T lysates
[5] = target: H77c E2 mutant, Asn532 substituted (hepatitis C virus genotype 1a, strain H77c) (UniProt P27958); assay: ELISA on GNA-captured mutant E2 from 293T lysates
[6] = target: H77c E2 mutant, Asp533 substituted (hepatitis C virus genotype 1a, strain H77c) (UniProt P27958); assay: ELISA on GNA-captured mutant E2 from 293T lysates
[7] = target: H77c E2 mutant, Pro525 substituted (hepatitis C virus genotype 1a, strain H77c) (UniProt P27958); assay: ELISA on GNA-captured mutant E2 from 293T lysates
[8] = target: H77c E2 mutant, Thr534 substituted (hepatitis C virus genotype 1a, strain H77c) (UniProt P27958); assay: ELISA on GNA-captured mutant E2 from 293T lysates
[9] = target: HCV envelope glycoprotein E2, genotype 1b (hepatitis C virus genotype 1b); assay: competition ELISA on GNA-captured E2 of 1b HCVpp lysate; competing antibody 20 ug/ml; competitor: biotinylated CBH-7 at 2 ug/ml
[10] = target: H77c E2 mutant, Asn540 replaced by alanine (hepatitis C virus genotype 1a, strain H77c) (UniProt P27958); assay: ELISA on GNA-captured mutant E2 from 293T lysates
[11] = target: H77c E2 mutant, Asp535 replaced by alanine (hepatitis C virus genotype 1a, strain H77c) (UniProt P27958); assay: ELISA on GNA-captured mutant E2 from 293T lysates
[12] = target: H77c E2 mutant, Gly523 replaced by alanine (hepatitis C virus genotype 1a, strain H77c) (UniProt P27958); assay: ELISA on GNA-captured mutant E2 from 293T lysates
[13] = target: H77c E2 mutant, Gly530 replaced by alanine (hepatitis C virus genotype 1a, strain H77c) (UniProt P27958); assay: ELISA on GNA-captured mutant E2 from 293T lysates
[14] = target: H77c E2 mutant, Trp529 replaced by alanine (hepatitis C virus genotype 1a, strain H77c) (UniProt P27958); assay: ELISA on GNA-captured mutant E2 from 293T lysates
[15] = target: H77c E2 mutant D658A (hepatitis C virus genotype 1a, strain H77c) (UniProt P27958); assay: alanine replacement, ELISA
[16] = target: H77c E2 mutant D698A (hepatitis C virus genotype 1a, strain H77c) (UniProt P27958); assay: alanine replacement, ELISA
[17] = target: H77c E2 mutant F679A (hepatitis C virus genotype 1a, strain H77c) (UniProt P27958); assay: alanine replacement, ELISA
[18] = target: H77c E2 mutant I696A (hepatitis C virus genotype 1a, strain H77c) (UniProt P27958); assay: alanine replacement, ELISA
[19] = target: H77c E2 mutant L692A (hepatitis C virus genotype 1a, strain H77c) (UniProt P27958); assay: alanine replacement, ELISA
[20] = target: H77c E2 mutant R657A (hepatitis C virus genotype 1a, strain H77c) (UniProt P27958); assay: alanine replacement, ELISA

CBH-4G (antibody)
percent decrease in binding vs wild type [1]: 70 to 95%

CBH-5 (antibody)
IC50 of 1a HCVpp neutralization [2]: 4 µg/mL | neutralization of 1a HCVpp at 20 µg/ml [2]: 60% | percent reduction of E2 binding to CD81 [3]: > 90%

HC-12 (antibody)
percent change in binding vs wild type [4]: < 20% | percent change in binding vs wild type [5]: < 20% | percent change in binding vs wild type [6]: < 20% | percent change in binding vs wild type [7]: < 20% | percent change in binding vs wild type [8]: < 20%

human monoclonal antibody CBH-23
percent competition [9]: > 90% | percent reduction of E2 binding to CD81 [3]: > 90%

human monoclonal antibody HC-1
percent change in binding vs wild type [4]: < 20% | percent change in binding vs wild type [5]: < 20% | percent of wild-type binding (% of wild type) [10]: < 10 | percent change in binding vs wild type [6]: < 20% | percent decrease in binding vs wild type [11]: > 80% | percent decrease in binding vs wild type [12]: 60% | percent decrease in binding vs wild type [13]: > 80% | percent of wild-type binding (% of wild type) [13]: < 10 | percent change in binding vs wild type [7]: < 20% | percent change in binding vs wild type [8]: < 20% | percent of wild-type binding (% of wild type) [14]: < 10 | percent reduction of E2 binding to CD81 [3]: > 90%

human monoclonal antibody HC-3
percent decrease in binding [15]: > 90% | percent decrease in binding [16]: > 90% | percent decrease in binding [17]: > 90% | percent decrease in binding [18]: > 90% | percent decrease in binding [19]: > 90% | percent decrease in binding [20]: > 90%

human monoclonal antibody HC-11
IC50 of 1a HCVpp neutralization [2]: 0.9 µg/mL | percent decrease in binding vs wild type [12]: 60% | percent decrease in binding vs wild type [14]: 44% | percent reduction of E2 binding to CD81 [3]: > 90%

Source: patent US20120039846A1
